This note sets out measurements from patent US20220204643A1 (published 2022).

For one assay, the target named is T1, zinc finger protein 8 (human, UniProt P17098 1-575).
T1 construct: on protein array; also called ZNF8
The experiment in a line: protein array.

Assay [1] deals with T2, ganglioside induced differentiation associated protein 1, transcript variant 2 (human, UniProt Q8TB36 69-358).
T2 construct: on protein array; also called GDAP1
T2 sequence: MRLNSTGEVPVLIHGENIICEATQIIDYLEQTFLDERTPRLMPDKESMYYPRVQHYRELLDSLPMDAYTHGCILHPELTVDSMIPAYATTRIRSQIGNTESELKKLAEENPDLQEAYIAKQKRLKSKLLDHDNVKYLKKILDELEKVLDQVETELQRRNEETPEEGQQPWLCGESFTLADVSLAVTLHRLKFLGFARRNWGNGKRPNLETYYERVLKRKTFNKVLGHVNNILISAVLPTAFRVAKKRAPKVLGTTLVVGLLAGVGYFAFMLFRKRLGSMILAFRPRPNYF
The experiment in a line: protein array.

Assay [2] addresses T3, SATB homeobox 2, transcript variant 2 (human, UniProt Q9UPW6 1-733).
T3 construct: on protein array; also called SATB2
T3 sequence: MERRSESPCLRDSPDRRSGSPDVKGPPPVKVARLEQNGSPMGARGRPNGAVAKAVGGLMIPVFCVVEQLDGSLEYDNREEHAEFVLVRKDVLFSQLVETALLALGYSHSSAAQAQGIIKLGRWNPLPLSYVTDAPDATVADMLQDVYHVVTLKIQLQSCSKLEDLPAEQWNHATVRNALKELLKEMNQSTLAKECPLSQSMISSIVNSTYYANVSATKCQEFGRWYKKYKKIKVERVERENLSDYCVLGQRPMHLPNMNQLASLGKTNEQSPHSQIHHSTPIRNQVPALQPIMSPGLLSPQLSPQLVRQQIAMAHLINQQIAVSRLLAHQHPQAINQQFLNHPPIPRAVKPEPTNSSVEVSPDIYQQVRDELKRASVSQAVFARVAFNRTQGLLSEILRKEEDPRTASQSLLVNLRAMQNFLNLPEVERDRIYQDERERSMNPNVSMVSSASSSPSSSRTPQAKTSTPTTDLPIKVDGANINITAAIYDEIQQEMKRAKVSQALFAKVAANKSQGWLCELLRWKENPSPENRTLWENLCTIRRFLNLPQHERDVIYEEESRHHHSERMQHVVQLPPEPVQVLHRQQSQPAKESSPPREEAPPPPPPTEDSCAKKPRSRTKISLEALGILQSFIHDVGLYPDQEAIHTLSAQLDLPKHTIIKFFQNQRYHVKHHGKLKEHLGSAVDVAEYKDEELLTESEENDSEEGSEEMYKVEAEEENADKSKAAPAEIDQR
The experiment in a line: protein array.

Assay [3] concerns the target T4, nucleosome assembly protein 1 like 1, transcript variant 1 (human, UniProt P55209 2-388).
T4 construct: HuProt array protein, full-length recombinant from yeast; also called NAP1L1
T4 sequence: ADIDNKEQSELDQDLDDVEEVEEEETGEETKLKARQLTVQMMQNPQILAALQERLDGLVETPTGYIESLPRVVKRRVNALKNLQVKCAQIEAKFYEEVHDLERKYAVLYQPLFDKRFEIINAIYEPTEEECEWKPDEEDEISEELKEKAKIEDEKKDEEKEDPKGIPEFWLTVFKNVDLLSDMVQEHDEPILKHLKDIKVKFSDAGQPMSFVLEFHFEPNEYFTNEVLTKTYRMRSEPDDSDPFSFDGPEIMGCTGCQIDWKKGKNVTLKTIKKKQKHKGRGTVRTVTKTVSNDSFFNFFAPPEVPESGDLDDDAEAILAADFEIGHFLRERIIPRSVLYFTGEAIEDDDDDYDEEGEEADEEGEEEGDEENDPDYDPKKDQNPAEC

Assay [4] deals with T5, KH RNA binding domain containing, signal transduction associated 2, transcript variant 2 (human, UniProt Q5VWX1 1-349).
T5 construct: HuProt array protein, full-length recombinant from yeast; also called KHDRBS2
T5 sequence: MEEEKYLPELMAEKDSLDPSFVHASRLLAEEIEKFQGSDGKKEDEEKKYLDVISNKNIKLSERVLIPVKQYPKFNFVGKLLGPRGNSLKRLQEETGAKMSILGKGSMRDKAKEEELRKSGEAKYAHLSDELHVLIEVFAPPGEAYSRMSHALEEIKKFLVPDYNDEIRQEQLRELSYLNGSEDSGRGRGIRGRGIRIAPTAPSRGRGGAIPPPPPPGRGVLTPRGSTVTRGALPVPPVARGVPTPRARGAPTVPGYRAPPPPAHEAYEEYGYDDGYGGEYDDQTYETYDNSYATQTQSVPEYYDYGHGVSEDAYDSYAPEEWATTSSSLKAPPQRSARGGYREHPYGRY

Assay [5] concerns the target T6, sorting nexin 33, transcript variant 1 (human, UniProt Q8WV41 1-574).
T6 construct: HuProt array protein, full-length recombinant from yeast; also called SNX33
T6 sequence: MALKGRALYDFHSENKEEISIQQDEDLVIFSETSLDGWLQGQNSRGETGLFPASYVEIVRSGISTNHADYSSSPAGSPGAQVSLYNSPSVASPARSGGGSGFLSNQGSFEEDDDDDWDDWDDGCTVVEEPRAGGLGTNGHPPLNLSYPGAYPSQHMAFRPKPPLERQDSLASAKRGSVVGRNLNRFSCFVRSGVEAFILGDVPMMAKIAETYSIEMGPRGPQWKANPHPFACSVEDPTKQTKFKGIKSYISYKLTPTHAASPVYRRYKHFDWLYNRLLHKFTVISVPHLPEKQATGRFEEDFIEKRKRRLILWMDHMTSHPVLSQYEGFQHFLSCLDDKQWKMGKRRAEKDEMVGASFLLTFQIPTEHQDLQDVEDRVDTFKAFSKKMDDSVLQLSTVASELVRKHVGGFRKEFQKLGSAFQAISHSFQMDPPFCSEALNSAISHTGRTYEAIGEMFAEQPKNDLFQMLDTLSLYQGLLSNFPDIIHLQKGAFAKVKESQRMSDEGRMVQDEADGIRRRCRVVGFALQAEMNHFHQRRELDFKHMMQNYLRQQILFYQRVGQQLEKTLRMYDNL

In assay [6] the target is T7, nudE neurodevelopment protein 1, transcript variant 1 (human, UniProt Q9NXR1 1-335).
T7 construct: HuProt array protein, full-length recombinant from yeast; also called NDE1
T7 sequence: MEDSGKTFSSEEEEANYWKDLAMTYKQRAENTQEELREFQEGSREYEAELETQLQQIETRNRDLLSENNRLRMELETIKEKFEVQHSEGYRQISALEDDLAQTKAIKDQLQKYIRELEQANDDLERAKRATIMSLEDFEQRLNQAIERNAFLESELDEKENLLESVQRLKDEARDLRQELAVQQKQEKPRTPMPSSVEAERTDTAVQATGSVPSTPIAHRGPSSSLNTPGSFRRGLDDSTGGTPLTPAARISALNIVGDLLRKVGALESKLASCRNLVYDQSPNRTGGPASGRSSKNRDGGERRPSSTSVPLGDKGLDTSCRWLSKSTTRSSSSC

A further assay concerns the target T8, extended synaptotagmin 2 (human, UniProt A0FGR8 564-921).
T8 construct: HuProt array protein; labelled _frag; also called ESYT2_frag
T8 sequence: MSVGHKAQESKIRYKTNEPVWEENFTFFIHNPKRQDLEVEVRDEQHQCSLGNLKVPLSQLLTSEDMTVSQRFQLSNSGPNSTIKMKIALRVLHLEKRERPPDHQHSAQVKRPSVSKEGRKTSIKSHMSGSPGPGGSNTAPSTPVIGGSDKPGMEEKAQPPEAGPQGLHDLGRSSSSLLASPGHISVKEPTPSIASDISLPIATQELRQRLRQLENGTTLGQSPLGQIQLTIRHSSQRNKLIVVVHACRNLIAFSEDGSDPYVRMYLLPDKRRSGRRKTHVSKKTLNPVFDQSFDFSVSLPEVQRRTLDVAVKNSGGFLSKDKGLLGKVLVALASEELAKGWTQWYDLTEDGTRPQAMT

Assay [7] deals with T9, TruB pseudouridine synthase family member 1 (human, UniProt Q8WWH5 2-349).
T9 construct: HuProt array protein, full-length recombinant from yeast; also called TRUB1
T9 sequence: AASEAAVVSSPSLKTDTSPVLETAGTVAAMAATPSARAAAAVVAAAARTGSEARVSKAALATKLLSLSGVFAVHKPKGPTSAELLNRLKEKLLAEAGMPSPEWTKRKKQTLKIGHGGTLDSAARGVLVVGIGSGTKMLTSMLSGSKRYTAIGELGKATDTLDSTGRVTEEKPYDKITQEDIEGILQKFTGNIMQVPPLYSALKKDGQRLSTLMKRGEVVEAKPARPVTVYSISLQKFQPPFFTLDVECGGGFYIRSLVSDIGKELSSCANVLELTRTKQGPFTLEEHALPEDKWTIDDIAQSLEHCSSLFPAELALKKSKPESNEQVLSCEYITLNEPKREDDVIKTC

Assay [8] has as its target T10, phospholipid scramblase 4, transcript variant X4 (human, UniProt Q9NRQ2 1-329).
T10 construct: HuProt array protein, full-length recombinant from yeast; also called PLSCR4
T10 chain: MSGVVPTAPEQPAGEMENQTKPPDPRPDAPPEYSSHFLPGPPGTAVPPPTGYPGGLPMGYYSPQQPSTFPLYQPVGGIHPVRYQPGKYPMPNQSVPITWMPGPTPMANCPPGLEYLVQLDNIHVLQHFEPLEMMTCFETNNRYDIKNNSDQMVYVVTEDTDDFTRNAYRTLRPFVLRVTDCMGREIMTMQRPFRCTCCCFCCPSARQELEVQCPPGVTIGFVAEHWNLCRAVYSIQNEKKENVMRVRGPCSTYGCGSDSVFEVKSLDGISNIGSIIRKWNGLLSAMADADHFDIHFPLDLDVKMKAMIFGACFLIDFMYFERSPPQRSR

T1 sequence (P17098 whole entry): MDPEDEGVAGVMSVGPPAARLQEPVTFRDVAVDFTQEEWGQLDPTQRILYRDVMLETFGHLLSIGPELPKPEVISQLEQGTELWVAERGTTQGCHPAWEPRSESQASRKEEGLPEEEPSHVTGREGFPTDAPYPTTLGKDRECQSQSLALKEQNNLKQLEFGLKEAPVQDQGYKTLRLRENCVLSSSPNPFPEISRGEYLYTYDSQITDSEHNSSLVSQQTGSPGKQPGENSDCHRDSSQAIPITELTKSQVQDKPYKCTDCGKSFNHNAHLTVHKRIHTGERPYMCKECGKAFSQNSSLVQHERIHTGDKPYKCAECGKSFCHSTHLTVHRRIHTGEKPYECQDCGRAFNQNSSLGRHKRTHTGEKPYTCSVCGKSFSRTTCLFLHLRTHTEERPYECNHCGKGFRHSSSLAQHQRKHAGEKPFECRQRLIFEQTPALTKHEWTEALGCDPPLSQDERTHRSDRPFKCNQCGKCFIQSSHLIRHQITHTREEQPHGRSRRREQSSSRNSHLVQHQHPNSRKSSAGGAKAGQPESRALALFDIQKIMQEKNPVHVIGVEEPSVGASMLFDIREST

B1: TBRE1017 (antibody, V domains shown)
VH: QVQLVQSGAEVKKPGASVKVSCKASGYNFRDYYMHWVRQAPGQGLEWMGWINPNSGGTISAQNFQGRVTMTRDTSISTAYMEVNSLRSDDTAVYYCAVGMVTDGFEIWGQGTLVTVSS
VL: PYELTQPPSVSVSPGQTARITCSGDALPNENAFWYQQKPGQAPVLVIYEDIKRPSGIPERFSGSSSGTTVTLTISGVQAEDEADYYCQSVDITSTWVFGGGTKLTVLG
notes: VH/VL only
For B1, the binding result (with zinc finger protein 8; in [1]; in assay [2]) was “binds” throughout.

B2: TCER1001 (antibody, V domains shown)
VH: EVQLVESGGGLVQPGRSLRLSCAASGFTFDDYAMHWVRQAPGKGLEWVSGISWNSGSIGYADSVKGRFTISRDNAKNSLYLQMNSLRAEDTALYYCAKDLLGFRDQRNYYGMDVWGQGTTVTVSS
VL: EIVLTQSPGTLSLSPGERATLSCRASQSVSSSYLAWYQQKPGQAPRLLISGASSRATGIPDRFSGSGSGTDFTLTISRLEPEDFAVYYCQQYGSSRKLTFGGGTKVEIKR
notes: detected with anti-human IgG Fc
As for B2, in [3], the binding result was “binds”.

B3: TCHO1001 (antibody, V domains shown)
VH: PVHLVQSGAEVKKPGSSVKVSCKLSGGIFSYFAIIWVRQAPGQGLEWMGTIIPIFGTSNYAEKFQDRVAIVADEATSTVYMEVNSLRSEDTAIYFCARDSEVEKSDGYMASTAEYFQLWGQGTLVTVSS
VL: not shown
notes: detected with anti-human IgG Fc; also called TCH01001
In the case of B3, the binding result in assay [4] is recorded as “binds”.

B4: TCER1006 (antibody, V domains shown)
VH: EVQLVQSGAEVKKPGESLKISCKGSGYSFTSFWIGWVRQMPGKGLEWMGIIFPADSDTRYSPSFQGQVIISVDKSISTAYLQWSSLKASDTAMYYCARRGVSGGSAWTYYNFFDPWGQGTLVTVAS
VL: PSVLTQPPSVSAAPGQKVTISCSGSSSNIDNNYVSWYQQLPGTAPKLLIYENNKRASGIPDRFSGSKSGTSATLGITGLQTGDEADYYCGTWDSSLSPGGVFGGGTKLTVLG
notes: as for B2
Turning to B4, the binding result in assay [5] is listed as “binds”.

B5: TCER1002 (antibody, V domains shown)
VH: QVQLQESGPGLVKPSETLSLSCTVSGASMNNYYWSWIRQSAGKGLEWIGRIYSSGDTDYNPSLKTRVTMSIDTSKNQFSLNLDSVTAADTATYYCARSFYDTLFYFENWGQGTLVTVSS
VL: DIQMTQSPSTLSASVGDRVTITCRASQSISVWLAWYQQKPGKAPKLLIYKASTLEAGVPSRFSGSGSGTEFSLTISGLQPDDFGTYFCQHYDSYPWTFGQGTKVEMK
notes: as for B2
In the case of B5, the binding result in assay [6] is on record as “binds”.

B6: TCOL1004 (antibody, V domains shown)
VH: QVQLQESGPGLVKPSQTLSLTCIVSGGSISGDKNFWSWVRQHPEKGLEWLGYISYNGNTYYNPSLISRIIISLDTPKNLFSLRLSSVTVADTAIYYCAREVDIRGDSDAFDIWGRGTVVTVSS
VL: EIVMTQSPATLSVSPGERATLSCRASQSVSTNLAWYQQRPGQAPRLFIFGASTRATGIPARFSGSGSGTEFTLTISSPQPEDSAVYYCQQYTTRPLTFGGGTKVEIKR
notes: as for B2
For B6, in the assay with extended synaptotagmin 2, the binding result was “binds”.

B7: TCER1003 (antibody, V domains shown)
VH: QITLKESGPTLVKPTQTLTLTCTFSGFSLTTTDVGVGWIRQPPGKALEWLTIIYWDDDERYSPSLKSRLTITKDTSKNQVVLSMTNMDPVDTATYYCARVYSTKWDFDYWGQGTLVTVSS
VL: VSSELTQDPAVSVALGQTVRITCQGDSLRRYYVSWYRQKPGEAPVVVIYGKNNRPSWIPDRLSGSSSGNTASLTITGAQAEDEADYYCCSRDSSGNPWVFGGGTKLTVLG
notes: as for B2
As for B7, the binding result in assay [7] and in [8] was “binds” throughout.
